# Laboratory results: patent US8293494
# Columns and labels:
# [1] = target: histone H3 dimethylated at lysine 9 (core histones or nucleosomes from HeLa cells), P68431
# [2] = target: histone H3 monomethylated at lysine 9 (core histones or nucleosomes from HeLa cells), P68431
# [3] = target: histone H3 trimethylated at lysine 9 (core histones or nucleosomes from HeLa cells), P68431
Protein,"in vitro demethylation assay, Western blot with α-dimethyl H3K9 [1]","in vitro demethylation assay, Western blot with α-monomethyl H3K9 [2]","in vitro demethylation assay, Western blot with α-trimethyl H3K9 [3]"
recombinant JMJD2C (aa 12-349) (protein) PSCKIMTFRPSMEEFREFNKYLAYMESKGAHRAGLAKVIPPKEWKPRQCYDDIDNLLIPAPIQQMVTGQSGLFTQYNIQKKAMTVKEFRQLANSGKYCTPRYLDYEDLERKYWKNLTFVAPIYGADINGSIYDEGVDEWNIARLNTVLDVVEEECGISIEGVNTPYLYFGMWKTTFAWHTEDMDLYSINYLHFGEPKSWYAIPPEHGKRLERLAQGFFPSSSQGCDAFLRHKMTLISPSVLKKYGIPFDKITQEAGEFMITFPYGYHAGFNHGFNCAESTNFATVRWIDYGKVAKLCTCRKDMVKISMDIFVRKFQPDRYQLWKQGKDIYTIDHTKPT,the methylation status of mono- and dimethyl H3K9 is not altered,the methylation status of mono- and dimethyl H3K9 is not altered,Recombinant JMJD2C very efficiently demethylates trimethyl H3K9 on both core histones and nucleosomes in vitro
mutant JMJD2C H190A (aa 12-349) (protein) PSCKIMTFRPSMEEFREFNKYLAYMESKGAHRAGLAKVIPPKEWKPRQCYDDIDNLLIPAPIQQMVTGQSGLFTQYNIQKKAMTVKEFRQLANSGKYCTPRYLDYEDLERKYWKNLTFVAPIYGADINGSIYDEGVDEWNIARLNTVLDVVEEECGISIEGVNTPYLYFGMWKTTFAWATEDMDLYSINYLHFGEPKSWYAIPPEHGKRLERLAQGFFPSSSQGCDAFLRHKMTLISPSVLKKYGIPFDKITQEAGEFMITFPYGYHAGFNHGFNCAESTNFATVRWIDYGKVAKLCTCRKDMVKISMDIFVRKFQPDRYQLWKQGKDIYTIDHTKPT,,,the enzymatically impaired mutant JMJD2C H190A fails to demethylate
